Results on 21 sequences are retold here after the DeepSol protein solubility set.

This series is described as follows: soluble on expression in E. coli; label from the status in PepcDB or PDB records.
“MRITTKVGDKGSTRLFGGEEVWKDSPIIEANGTLDELTSFIGEAKHYVDEEMKGILEEIQNDIYKIMGEIGSKGKIEGISEERIKWLEGLISRYEEMVNLKSFVLPGGTLESAKLDVCRTIARRAERKVATVLREFGIGKEALVYLNRLSDLLFLLARVIEIEKNKLKEVRS”: the “soluble on expression in E. coli” value was “soluble”. Turning to “MHTFILLLTVLCAGAYTQFTANGQAAILNVHNTLRSRIAKGTYVARGTVKHAASDMLKMKWLRSLATSSQIYANRCPTGHSNMIGVGENLYWYWTSGTITNIDQFGAMASAAWEKEFQDYGWSSNTLTMSLFNSGVGHATQMAWAKTNLIGCGVKNCGMDTNGMNKVAVVCHYQPQGNYLNQNIYTSGTTCSKCPAGTSCEAATGLCV”, the “soluble on expression in E. coli” value was “not soluble”.

As to “MDHDKSKRLPPSYYTLLEASQEKETTSTKILAQYLDRSPATVRTQFQRIMEFLDVSSRYGALREAEKRGLIRRNKRATSAHHQENRSSL”, the “soluble on expression in E. coli” value is reported as “not soluble”. In the case of “GMSKLSLIQQLKQQKLSVGILSANWLQLNEEVTTLLENQINVLHFDIADGQFSSLFTVGAIGIKYFPTHCFKDVHLMVRNQLEVAKAVVANGANLVTLQLEQYHDFALTIEWLAKQKTTYANQVYPVLIGACLCPETPISELEPYLDQIDVIQLLTLDPRNGTKYPSELILDRVIQVEKRLGNRRVEKLINIDGSMTLELAKYFKQGTHQIDWLVSGSALFSGELKTNLKVWKSSIM” it was “soluble”.

“MFRLRLISGFNFAPIIADAIVDLSKDFFQSDNSEVCCGQILYLAISDEEGPGKPILDSKHVEVILTLDLPEDMDVYEKFGLSAYRQHILLRITQEARDQNALLTIKDLVKLLKSSYSTIIRDLKYFREKGLYVPLRGIVKDIGPSSHKSKIVELYLKGYTTTEIQRSTRHSLQSIERYIKDFSRVSILTQKGESIDNIRLIVGISERLVKEYQELFIKYKDGDNKQRVEELIDNITVYDSPMSFKKNSGMRM”: the “soluble on expression in E. coli” value is “not soluble”. Regarding “SNAMADLLLGVNIDHIATLRNARGTIYPDPVQAAFIAEQAGADGITVHLREDRRHITDRDVRILRQTIQTRMNLEMAVTDEMVDIACDIKPHFCCLVPEKRQEVTTEGGLDVAGQVDKMTLAVGRLADVGILVSLFIDADFRQIDAAVAAGAPYIEIHTGAYADASTVLERQAELMRIAKAATYAAGKGLKVNAGHGLTYHNVQPIAALPEMHELNIGHAIIGQAVMTGLAAAVTDMKVLMREARR”, the “soluble on expression in E. coli” value is on record as “soluble”. In the case of “MGSDKIHHHHHHMNYRTIAKNGSTEETIKKSRFICQAKRITNEAEGRDFITQIKKEHYKARHSCSAMIIGENSDIKRSSDDGEPSGTAGIPMLSVLEKKQLTNLVLVVTRYFGGIKLGTGGLIRAYSGGAANTLKALGIVEVKKQTGLRLELTYPQYQTFANFLKEHQLQEYDTDFSVTVNTTIYVDKKDIEFTLDQLTEFYQGKLKSHVAGNQIIEVPVI” it was “not soluble”.

For “GMNVNFINPFLQSLLNVISTMASLELTPGKPQIKTDNLAKGDVSGLIGMVGPQTKGSLSITFEQKLVLQIMQNMLGENPGKINEEVTDLVGEITNMVTGGAKNLLGQKGYEFEMATPMVVSGQGHTISHKANGTKIIMPFTSSYGTAFIEVCFES”, the “soluble on expression in E. coli” value is given as “soluble”. Next, “MSLEIKPEDTWRLEDIFSTDDAWEKEFQEVKQLLPDAGGFQGKLGDSADKLYEALQYQDHLLERLGRLYSYAHMRYDQDTTNSFYQGLDDRIKNLYSQAASSLAYIVPEILAIDEEKISSFLDEKEELRLYKHSLEEINLQRPHVLSAEAEALLAQASEVLDAPGNTFGMLNNADLEFPSIKDENGEEVEVTHGRYIRFLESDDQRVRRDAFKAVYDTYGKFKNTFSSTLSSNVKKDNFYARVRNYDSARHAALSDNNIPESVYENLVNTVNDNLHLLHRYIKLRKEVLGLEKLHMYDLFTPLVKDVKMEIPYDEAKDYVLKGLEPLGEEYLSVLKEGFENRWVDVHENKGKRSGAYSSGAYGTNPYILMNWQDNVNNLFTLAHEFGHSVHSYYTRKTQPYPYGNYSIFVAEVASTCNEALLNDYLLKTIDDDQKRLYLLNHYLEGFRGTVFRQTMFAEFEHQIHQKAQNNEALTAEALTQDYYELNKKYFGEEDIIIDEEIGLEWSRIPHFYYNYYVYQYATGFSAATALSKQILEEGEPAVERYINFLKAGSSDYPIEVLKKAGVDMTSPAPIADACKVFEEKLNEMEELLNREGHHHHHH”: “soluble”. As to “MSMTDLLNAEDIKKAVGAFSATDSFDHKKFFQMVGLKKKSADDVKKVFHMLDKDKSGFIEEDELGFILKGFSPDARDLSAKETKMLMAAGDKDGDGKIGVDEFSTLVAES”, the “soluble on expression in E. coli” value is “soluble”. Next, “MDNQPYNPLHGLTLKTIVTELEAYFGFETLGKTIKIKCFTDDPSIQSTLKFLRKTPWAREKVEQLYIKNKIKIQNSFESGDLDLEHHHHHH”: “not soluble”; “MMKEFNPREIEKKWQKRWEEAGVFKAQEGKPNKFYVLEMFPYPSGRIHMGHVRNYTIGDAIARYLKMRGKNILHPMGWDAFGLPAENAAIKHGIHPAKWTYENIDYMKKQLKILGFSYDWDREIATCDPEYYKWNQWIFLKMLERGIAYRKTAKVNWCPHDQTVLANEQVIEGKCWRCGTPIVQKEVPSWFLRITAYADRLLEDLKKLEGKWPERVIAQQRNWIGRSEGALIRFYVEIEEPEKFLNCVPEELKETLLKEKRIYIDVFTTRPDTVFGATFVVLAPEHPLVPVLACIGERLGNACYSDVENFVEKMKKMSTRERTMEEDKEGVFLGVYATNPANGEKIPVWSANYVLYEYGTGAIMCVPAHDQRDWEFAKKYDLPIKVVVKPEGAWDFEKGAYEGKGTLVNSDGFDGLDSETAKRKITEWLQDRGLGEKKVSYRLRDWNISRQRYWGTPIPVVYCEKCGMVPVPEDQLPVKLPLDVKFTGQGNPLETSEEFVNTTCPKCGGKARRETDTMDTFFDSSWYFLRFCDPKNDREPFSREKVDYWMPVDVYIGGIEHAVLHLLYARFFQKFLKDLGLVRDDEPFEKLITQGMVLKKWVSVKKLLDYLGLSEEDEVEELKKRLEELGARRA”: “soluble”. In the case of “MVRKALWKECLRIGGKVPLLNGEKLREIFRSGRGTGRFAKALGIEYGVDTSFNMLKVAKERGIKVALAKGENLPFKSETFDSVFLVVTICFVENPKQVLKEAHRVLKRDGKLYLGLILKESKWAKFYEEKAKNGHPFYKHARFYSFFELKEMVKDIFSFEEMKSTLLEEPQDSEPVKNKEIKPGFYENSGFTCIRLSKKLLEHHHHHH” it was “not soluble”; in that of “MLSRMRRKHFLSQTEHTFSRQEVSLWKEKQMICFMMNPSRKHIWASREEINMDHVVITIARQYGSGGRTVGKMLAERLGISFYDKQIIHMASDESGIDVNLFGKIEAGDKIKSSLFGNKSSIYKGDLVLPGNKDFISDENLFNYQAKVVNDLAEKESYVIVGRCVNYVFKDRPNTLRVFIHAPWEFRVEQASQKISGSREDVEKFLLKDDKRKQDYYRKFAGGQWSDATNYDLCLNSGKLGFDKCVDAIETQLKIMLGK”, “not soluble”; in that of “MGSDKIHHHHHHLTLMGLSVTDYDSEMPDATEPGTTERSLVELLLAEGPSTRLELQAKLGVSRPTLSSAVNKLLSLGLLQEQGTAAYGAGRNGRPQALLAPNRAMGAAVGIELGKAQVAVTILAIDGTVHAQKVTSTSPGTTLQRRLNIALGSVGTFISSNILNPESVLGVGVGVSGLHPDARPAGGSALVDPPGAKLDKLRTLLAAPVVWDNNTRMATFRHLGGSGLDSPGAVLYVVLSAGVSAGIVDGGEVLRGRGAAGELGHVCLDPEGPVCGCGSRGCLEAYVGVEAVLRSARGKGATVADLEELAAVVQSGDADALAVIGLVGRMLGIGLNNAAMLVDPRRIILTGPLLSLGPALVSAATEELRIRRMAVTLGVPDVVAEIGSPFDSSHGAALTALRRWGPGFMGMLTQNGIATTG”, “not soluble”. Next, “MGHHHHHHSHMIKLENELLLVEMKEAGAELTRIFHKDTKLEYLWNADSTFWGRHSPVLFPTVGRLVEDTYFVDGNPYHLGQHGFARDRDFKVVEHTENAVRFELDADEDSLTIYPYKFKLSIIYTIEKDSVAVSYEVENTDNKRIYFSIGAHPAFNLPLADGTTFEDYYLDFGTEENLETLCLEGPYRSGKIEKVVNEPARYLPLSYDLFKNDALIFEGLKQKEITIKSDKTPHFVKVSFPEFPFVGVWTAKAGTPFLCIEPWYGIADGAGKSVELRDKAGIEHLEPEAVFASEYKITIG”: “soluble”; “MFDPPALKNSVISFLNKRRHSSGGYTLYEGLPDSKNTYYAIRSFEVLDHEPPRLEETLDWLEDVHRGGTFAAQGLFYRCSILRDYGRNFEIPEKFTEMLRTSYRKSSLEITFYMDSVLRMHGEYLDEIPEWVLSIQNEDGGFGAYGSDIINTRFALEILNGHGMKIPGDEVLQFTDSCFSDGAWNFTPISYPPYIETVHSGFRINEILRGKVSDVTRFIMKIRNPDGGFRRSVYMGISEPEYTYRAIYMLASIHGW”: “not soluble”. Regarding “MHRPEAEKWLRRFERAPDARARLVCLPHAGGSASFFFPLAKALAPAVEVLAVQYPGRQDRRHEPPVDSIGGLTNRLLEVLRPFGDRPLALFGHAMGAIIGYELALRMPEAGLPAPVHLFASGRRAPSRYRDDDVRGASDERLVAELRKLGGSDAAMLADPELLAMVLPAIRSDYRAVETYRHEPGRRVDCPVTVFTGDHDPRVSVGEARAWEEHTTGPADLRVLPGGHFFLVDQAAPMIATMTEKLAGPALTGSTGGNSLEHHHHHH”, the “soluble on expression in E. coli” value is reported as “soluble”.

As to “MMGLLKRLLRVVRAEAHSVVEKLEDPIKITEEGLRELRKQLKEAMEALAQVKASQIRFEREARNEKERAKALVKKAESLLLQAQEGKISPEEAEKLAAELIQKAELHEKNARRLEEEAKRQREMAVKLQAKIDELKVQIAKYEAELKTLKARLATARAVKKVNKQIAKVDPSDTIAMLERMKEKVEEEETLAQAYEELAKQEVALDVESEAEKKLKEVESKQKLEELKKRLGLSLEHHHHHH”, the “soluble on expression in E. coli” value is listed as “not soluble”. Consider “MSKLAIIAGDGIGPEVTAEAVKVLDAVVPGVQKTSYDLGARRFHATGEVLPDSVVAELRNHDAILLGAIGDPSVPSGVLERGLLLRLRFELDHHINLRPARLYPGVASPLSGNPGIDFVVVREGTEGPYTGNGGAIRVGTPNEVATEVSVNTAFGVRRVVADAFERARRRRKHLTLVHKTNVLTFAGGLWLRTVDEVGECYPDVEVAYQHVDAATIHMITDPGRFDVIVTDNLFGDIITDLAAAVCGGIGLAASGNIDATRANPSMFEPVHGSAPDIAGQGIADPTAAIMSVALLLSHLGEHDAAARVDRAVEAHLATRGSERLATSDVGERIAAAL”, for which the “soluble on expression in E. coli” value is recorded as “soluble”. As to “MGSDKIHHHHHHMFSSPLELFKALTQIPHSSGDTTLMQKFLIQSAQSFGALVSVDSAGNILCQKGDSPRFCLQAHYDMVCVGKAPEIELFEEGGWLRAKDSSLGADNGAALACFLILLKQESSIEILFTNDEEIGMLGAKALELTPSAPLILNVDSESLQEVVISCAGGYDLELEIPATFKETPAEGYLYELSTQNFLGGHSGIDIIKNHPNALVEMAHLLASLPVEILSFEGGEKSNSIPVHAKASLFSSRPLEHLPSWIRATARPLSSPLKALDQTPLLDLLRALHSGIFAYDEESSGVLDSLNISLLKAHEKGWTLTLMGRANDKERLWRNLERARLIARAFGIKEDRLKDFYPPWEKAKSSSYLEKIKEVYERELGVCHVRSIHAGLECAVLQEKLPKAEFISIGPTILHPHSTREALDIKSFERFWEILQIITKVL”, the “soluble on expression in E. coli” value is “not soluble”.
